One data set has as its target T1, rHJ5Nag (Microbacterium sp. HJ5, UniProt A0A1W6AQA7).
T1 construct: pEASY-E2 in E. coli BL21 (DE3), purified on Ni-NTA
T1 sequence (A0A1W6AQA7 21-535): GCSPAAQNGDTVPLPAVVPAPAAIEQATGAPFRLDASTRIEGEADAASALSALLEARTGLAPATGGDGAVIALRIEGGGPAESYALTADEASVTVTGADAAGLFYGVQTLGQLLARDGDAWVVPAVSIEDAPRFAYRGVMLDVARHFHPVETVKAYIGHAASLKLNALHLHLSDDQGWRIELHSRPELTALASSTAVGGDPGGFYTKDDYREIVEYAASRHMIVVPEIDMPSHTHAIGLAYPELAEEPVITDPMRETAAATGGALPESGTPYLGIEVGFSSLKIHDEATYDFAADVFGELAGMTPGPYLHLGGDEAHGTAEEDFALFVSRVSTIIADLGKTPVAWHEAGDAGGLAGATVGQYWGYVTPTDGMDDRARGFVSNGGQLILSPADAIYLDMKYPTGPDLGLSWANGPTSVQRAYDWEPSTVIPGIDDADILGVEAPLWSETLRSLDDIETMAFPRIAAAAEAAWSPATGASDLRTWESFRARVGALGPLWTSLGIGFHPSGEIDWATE
The experiment in a line: pNP release assay, nonlinear mixed-model inhibition fit. The settings on record: 0.1-1.2 mM pNPGlcNAc; pH 6.0; 45 °C; mixed competitive and noncompetitive inhibition (alpha 3.412); product inhibitor at 5.0 and 10.0 mM. Format: biochemical.

Substrate in data set [1]: CC(=O)N[C@H]1[C@H](Oc2ccc([N+](=O)[O-])cc2)O[C@H](CO)[C@@H](O)[C@@H]1O
The data set is described as follows: pNP release assay, nonlinear Michaelis-Menten fit. The settings on record: pH 6.0, 45 °C, McIlvaine buffer, without added GlcNAc. Format: biochemical, Microbacterium sp. HJ5.

For orientation: Ki means the equilibrium dissociation constant of an inhibitor or competing ligand from its target. What is called Km is the concentration of substrate that gives half-maximal velocity. In general, kcat refers to the maximal rate divided by the concentration of active sites.

`CC(=O)N[C@H]1C(O)O[C@H](CO)[C@@H](O)[C@@H]1O` (stereo partly drawn) [N-acetylglucosamine] gave an inhibition constant (Ki) on rHJ5Nag of 14.6 mM.

B1: rHJ5Nag (Microbacterium sp. HJ5) (protein)
chain: GCSPAAQNGDTVPLPAVVPAPAAIEQATGAPFRLDASTRIEGEADAASALSALLEARTGLAPATGGDGAVIALRIEGGGPAESYALTADEASVTVTGADAAGLFYGVQTLGQLLARDGDAWVVPAVSIEDAPRFAYRGVMLDVARHFHPVETVKAYIGHAASLKLNALHLHLSDDQGWRIELHSRPELTALASSTAVGGDPGGFYTKDDYREIVEYAASRHMIVVPEIDMPSHTHAIGLAYPELAEEPVITDPMRETAAATGGALPESGTPYLGIEVGFSSLKIHDEATYDFAADVFGELAGMTPGPYLHLGGDEAHGTAEEDFALFVSRVSTIIADLGKTPVAWHEAGDAGGLAGATVGQYWGYVTPTDGMDDRARGFVSNGGQLILSPADAIYLDMKYPTGPDLGLSWANGPTSVQRAYDWEPSTVIPGIDDADILGVEAPLWSETLRSLDDIETMAFPRIAAAAEAAWSPATGASDLRTWESFRARVGALGPLWTSLGIGFHPSGEIDWATE
notes: pEASY-E2 in E. coli BL21 (DE3), purified on Ni-NTA
As for B1, in data set [1], the Michaelis-Menten constant (Km) came out at 520 ± 50 µM and the kcat was 2886 ± 116 s⁻¹.

Source of the values: publication PMC5387316, “Distinctive molecular and biochemical characteristics of a glycoside hydrolase family 20 β-N-acetylglucosaminidase and salt tolerance” (BMC Biotechnology, 2017).
